Peptide text beside a SMILES is read from it. * marks the point of attachment. X1 = CC1(C)C(/C=C/C=C/C=C/C=C2/N(CCCCCC(=O)NCCN3C(=O)CC(*)C3=O)c3ccc4ccccc4c3C2(C)C)=[N+](CCCCS(=O)(=O)[O-])c2ccc3ccccc3c21
Experiments:
[1] = Imaging of blood vessels in mice; type: in vivo, athymic female nude mice; conditions: 2.5 nmol single tail vein injection, NIR imaging of leg and ear, five animals
Description: Single tail vein administrations of 2.5 nmol of ICG-Cys or pHLIP ICG in sterile PBS or PBS with 5% DMSO or 5% Ethanol (vol:vol) (volume of the injection was 100 μl) were given to athymic female nude mice (strain Hsd Athymic Nude-Foxn1nu) ranging in age from 5 to 6 weeks (obtained from Envigo RMS Inc). Mice were under gas anesthesia, and imaging of mouse leg and ear was performed immediately and at different time points (from 5 min till 120 min) after administration of ICG-Cys or pHLIP ICG using the Stryker 1558 AIM clinical imaging system with L10 AIM Light Source, 1588 AIM Camera and a 10 mm scope and a Novadaq imaging system. Five animals per construct were used in the study.

[2] = system: 86 enzyme and receptor targets; experiment: Safety pharmacology profiling, enzyme and receptor binding panel (Eurofins Panlabs); conditions: 2 µM; all targets except progesterone receptor B
Description: The pHLIP ICG enzyme binding assays were performed by Eurofins Panlabs, Inc. according to standard assay protocols. […] The most significant inhibitory effect of pHLIP ICG was observed on progesterone B and was followed by an additional study to identify IC50 values, which were determined by a non-linear least square regression analysis using MathIQTM (ID Business Solutions Ltd., UK). The Ki values were calculated by the equation from Cheng and Prusoff [Cheng, Y., Prusoff, W.H., Biochem. Pharmacol. 22:3099-3108, 1973] using the observed IC50 of pHLIP ICG , the concentration of radioligand employed in the assay, and the historical values for the KD of the ligand (Eurofins Panlabs data). The Hill coefficient (nH), defining the slope of the competitive binding curve, was calculated using MathIQTM. […]

[3] = cited from earlier work
Excerpt: Since pHLIP peptides offer a unique approach to the targeting of a spectrum of tumor subtypes, we were motivated to develop a fluorescent pHLIP candidate in order to improve the surgical resection of tumors guided by fluorescence. After testing a variety of fluorescent dyes with pHLIP peptides, we chose a widely used clinical fluorescent dye, indocyanine green (ICG). In addition to its long record of safety, ICG was chosen to couple to pHLIP peptide as a clinical imaging candidate for two main reasons: first, the fluorescence of pHLIP ICG is enhanced about 20 times when pHLIP tethers ICG t ...

implanted tumors = experiment: Fluorescence-guided resection of tumors, dose finding; type: in vivo, mice; conditions: tail vein, doses 0.5 to 2.5 mg/kg, resection at 24 and 48 h, Stryker SPY-PHI
Description: Targeting of murine and human tumors was shown in 8 different tumor models in athymic female nude mice (strain Hsd Athymic Nude-Foxn1nu) ranging in age from 5 to 6 weeks (obtained from Envigo RMS, Inc). The following tumors were established by subcutaneous injection of 1 x 10^6 cells/0.1 ml/flank in flanks of athymic nude mice: HeLa (humans cervical adenocarcinoma), M4A4 (human epithelial carcinoma), 4T1 (murine breast tumor), A549 (human lung carcinoma), LLC (murine Lewis Lung carcinoma), UM-UC3 (human urinary bladder cancer), and 4 x 10^6 cells/0.1 ml/flank of LNCaP tumor (human prostate cancer). Human MDA-MB-231 (breast adenocarcinoma) tumors were established by injections of 1 x 10^6 cells/0.05 ml in the mammary fat pad. […] Finally, surgery was carried out under fluorescence-guidance to remove tumor and to image the tumor bed using the Stryker SPY-PHI handheld clinical imaging system.

[4] = Pharmacological safety assessment on the central nervous system (FOB) in rats (GLP); type: in vivo, Sprague Dawley rats; conditions: single i.v. bolus 0.218, 0.248, 3.72 and 7.44 mg/kg, up to 24 h post-dose
Description: The objective of this GLP study performed at CRL was to evaluate the pharmacological effects of pHLIP ICG on the central nervous system following a single i.v. bolus injection in rats.
Functional observation battery (FOB) tests were performed once prior to dosing and again at 5 minutes, 3 and 24 hours post-dose and included the following assessments: palpebral closure, eye prominence, pupil size, pupillary response, lacrimation, salivation, body tone, extensor thrust, pinna reflex, tactile reflex, overall animal reactivity, auricular startle, air righting reflex, body temperature (rectal). Additional evaluations consisted of mortality and clinical observations.

[5] = Follow up 7-days repeat i.v. toxicity in male B6D2F1 mice (GLP); type: in vivo
Description: The purpose of this GLP study performed at MSK was to assess the acute and delayed toxicity on the male reproductive system of mice of a repeat administration of pHLIP ICG at different concentrations. The pHLIP ICG was administered once/day for 7 consecutive days.
Throughout the study, body weights, clinical signs, and histopathology were collected.

CC(C)C[C@H](NC(=O)[C@H](Cc1ccc(O)cc1)NC(=O)[C@H](C)NC(=O)[C@H](CCCNC(=N)N)NC(=O)[C@H](Cc1c[nH]c2ccccc12)NC(=O)[C@@H]1CCCN1C(=O)[C@H](CC(N)=O)NC(=O)[C@H](CCC(N)=O)NC(=O)[C@H](CC(=O)O)NC(=O)[C@H](CC(=O)O)NC(=O)[C@H](CSC1CC(=O)N(CCNC(=O)CCCCCN2/C(=C/C=C/C=C/C=C/C3=[N+](CCCCS(=O)(=O)[O-])c4ccc5ccccc5c4C3(C)C)C(C)(C)c3c2ccc2ccccc32)C1=O)NC(=O)[C@H](C)N)C(=O)N[C@@H](CC(=O)O)C(=O)N[C@@H](CC(C)C)C(=O)N[C@@H](CC(C)C)C(=O)N[C@@H](Cc1ccccc1)C(=O)N1CCC[C@H]1C(=O)N[C@H](C(=O)N[C@@H](CC(=O)O)C(=O)N[C@H](C(=O)N[C@@H](CC(C)C)C(=O)N[C@@H](CC(C)C)C(=O)N[C@@H](CC(C)C)C(=O)N[C@@H](CC(=O)O)C(=O)N[C@@H](CC(C)C)C(=O)N[C@@H](CC(C)C)C(=O)N[C@@H](Cc1c[nH]c2ccccc12)C(=O)N[C@@H](C)C(=O)O)[C@@H](C)O)[C@@H](C)O (stereo partly shown) [pHLIP ICG] (H-AC(X1)DDQNPWRAYLDLLFPTDTLLLDLLWA-OH)
Time for which blood vessels are clearly revealed [1]: up to 2 h
Inhibitory effect on 86 enzyme and receptor targets [2]: No inhibitory effect was observed
Fluorescence enhancement when tethered to the membrane vs aqueous solution [3]: about 20 times
Minimal dose sufficient for successful visualization of tumors (implanted tumors): 0.5 mg/kg
Effect on the central nervous system (FOB) [4]: had no observed effect on the central nervous system
Toxicity finding, male reproductive system ([5]; male B6D2F1 mice, 4.92, 7.38, 12.3 mg/kg/day i.v. for 7 days): well tolerated, with no indication of germ cell degeneration or other toxicity to the male reproductive system
NOAEL ([5]; male and female mice, 7 days repeated i.v. administration): above 12.3 mg/kg/day

— article PMC7591906, “pHLIP ICG for delineation of tumors and blood flow during fluorescence-guided surgery” (Scientific Reports, 2020)
